Patent US20230285583A1, “LIQUID FORMULATION OF LONG-ACTING CONJUGATE OF GLUCAGON, GLP-1, AND GIP TRIGONAL AGONIST” (HANMI PHARM, CO., LTD., priority 2020, published 2023)
Bridge positions count the residues as written; N and C are the ends. Square brackets hold non-standard residues; d marks the D form. Ends that are not written are not given here. * marks the point of attachment. Acetyl(2-(4-imidazolyl)) = O=C(Cc1c[nH]cn1)*; Aib = CC(C)(N)C(=O)O

T1: human GIP receptor (human, UniProt P48546 22-466)
T1 sequence (looked up): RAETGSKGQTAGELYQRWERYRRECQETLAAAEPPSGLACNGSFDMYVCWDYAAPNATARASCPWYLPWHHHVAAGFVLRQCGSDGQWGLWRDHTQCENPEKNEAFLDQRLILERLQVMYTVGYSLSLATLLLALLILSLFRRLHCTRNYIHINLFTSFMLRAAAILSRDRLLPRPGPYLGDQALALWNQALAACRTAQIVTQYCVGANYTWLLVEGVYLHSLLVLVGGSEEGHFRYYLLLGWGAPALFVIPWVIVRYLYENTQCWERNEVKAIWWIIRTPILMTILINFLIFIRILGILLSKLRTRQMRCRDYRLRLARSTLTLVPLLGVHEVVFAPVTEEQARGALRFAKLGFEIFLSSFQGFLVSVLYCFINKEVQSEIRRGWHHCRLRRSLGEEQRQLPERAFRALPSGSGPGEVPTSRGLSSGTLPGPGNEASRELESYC


target: human GLP-1 receptor (human, UniProt P43220 24-463); experiment: cell-based or functional assay
Sequence (P43220 24-463): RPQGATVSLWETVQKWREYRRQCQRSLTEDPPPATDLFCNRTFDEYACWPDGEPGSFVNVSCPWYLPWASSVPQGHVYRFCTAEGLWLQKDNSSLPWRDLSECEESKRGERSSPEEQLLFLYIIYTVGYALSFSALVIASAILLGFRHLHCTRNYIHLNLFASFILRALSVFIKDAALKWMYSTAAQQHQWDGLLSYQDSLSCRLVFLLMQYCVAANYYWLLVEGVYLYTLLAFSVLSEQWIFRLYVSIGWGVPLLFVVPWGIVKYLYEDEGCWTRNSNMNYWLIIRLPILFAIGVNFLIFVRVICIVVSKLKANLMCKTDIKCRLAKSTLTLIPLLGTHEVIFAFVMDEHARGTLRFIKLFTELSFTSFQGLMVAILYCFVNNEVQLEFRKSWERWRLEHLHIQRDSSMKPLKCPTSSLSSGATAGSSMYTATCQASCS

Row | Binder | In Vitro Activity Compared to Native Peptide (%) vs. GLP-1 (relative titer from cAMP EC50) [%]
1 | [Acetyl(2-(4-imidazolyl))][Aib]QGTFTSDYSKCLDEKRAKEFVQWLLDHHPSSGQPPPS (bridge 16-20; not fully specified (bridges)) [trigonal agonist of SEQ ID NO: 29] | 12.9
2 | H[Aib]QGTFTSDYSKYLDEKRQKEFVQWLLDTKC (bridge 16-20; not fully specified (bridges)) [trigonal agonist of SEQ ID NO: 33] | 51
3 | Y[Aib]QGTFTSDYSKYLDEKAAKDFVQWLLDHHPSSGQPPPSC (bridge 16-20; not fully specified (bridges)) [trigonal agonist of SEQ ID NO: 32] | 38.7
4 | [Acetyl(2-(4-imidazolyl))][Aib]QGTFTSDYSKYLDECRAKEFVQWLLDHHPSSGQPPPS (bridge 16-20; not fully specified (bridges)) [trigonal agonist of SEQ ID NO: 28] | 22.6
5 | Y[Aib]QGTFTSDYSKYLDEKAAKEFVQWLLDHHPSSGQPPPSC (bridge 16-20; not fully specified (bridges)) [trigonal agonist of SEQ ID NO: 30] | 35.1
6 | Y[Aib]QGTFTSDYSKYLDERACKDFVQWLLDHHPSSGQPPPS (bridge 16-20; not fully specified (bridges); ends not checked) [trigonal agonist of SEQ ID NO: 26] | 90.1
7 | Y[Aib]QGTFTSDCSKYLDERAAKDFVQWLLDHHPSSGQPPPS (bridge 16-20; not fully specified (bridges); ends not checked) [trigonal agonist of SEQ ID NO: 27] | 11.5
8 | Y[Aib]QGTFTSDYSKYLDEKRAKDFVQWLLDHHPSSGQPPPSC (bridge 16-20; not fully specified (bridges)) [trigonal agonist of SEQ ID NO: 31] | 10.3

target: human GCG receptor (human, UniProt P47871 26-477); experiment: cell-based or functional assay
Sequence (P47871 26-477): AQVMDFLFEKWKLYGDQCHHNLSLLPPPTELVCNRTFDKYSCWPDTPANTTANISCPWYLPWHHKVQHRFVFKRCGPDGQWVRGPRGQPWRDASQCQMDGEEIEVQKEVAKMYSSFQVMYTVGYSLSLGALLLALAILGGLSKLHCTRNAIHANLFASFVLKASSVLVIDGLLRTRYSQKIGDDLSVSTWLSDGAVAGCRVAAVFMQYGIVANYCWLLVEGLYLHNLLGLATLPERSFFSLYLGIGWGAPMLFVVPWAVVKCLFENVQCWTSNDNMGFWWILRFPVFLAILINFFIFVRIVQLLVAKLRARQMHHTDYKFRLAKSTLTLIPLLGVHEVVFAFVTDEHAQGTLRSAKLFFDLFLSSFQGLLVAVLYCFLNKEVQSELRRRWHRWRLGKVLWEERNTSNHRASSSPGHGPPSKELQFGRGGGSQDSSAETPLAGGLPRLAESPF

Row | Binder | In Vitro Activity Compared to Native Peptide (%) vs. Glucagon (relative titer from cAMP EC50) [%]
9 | [Acetyl(2-(4-imidazolyl))][Aib]QGTFTSDYSKCLDEKRAKEFVQWLLDHHPSSGQPPPS (bridge 16-20; not fully specified (bridges)) [trigonal agonist of SEQ ID NO: 29] | 0.9
10 | H[Aib]QGTFTSDYSKYLDEKRQKEFVQWLLDTKC (bridge 16-20; not fully specified (bridges)) [trigonal agonist of SEQ ID NO: 33] | 14
11 | Y[Aib]QGTFTSDYSKYLDEKAAKDFVQWLLDHHPSSGQPPPSC (bridge 16-20; not fully specified (bridges)) [trigonal agonist of SEQ ID NO: 32] | 12.2
12 | [Acetyl(2-(4-imidazolyl))][Aib]QGTFTSDYSKYLDECRAKEFVQWLLDHHPSSGQPPPS (bridge 16-20; not fully specified (bridges)) [trigonal agonist of SEQ ID NO: 28] | 5.4
13 | Y[Aib]QGTFTSDYSKYLDEKAAKEFVQWLLDHHPSSGQPPPSC (bridge 16-20; not fully specified (bridges)) [trigonal agonist of SEQ ID NO: 30] | 8.5
14 | Y[Aib]QGTFTSDYSKYLDERACKDFVQWLLDHHPSSGQPPPS (bridge 16-20; not fully specified (bridges); ends not checked) [trigonal agonist of SEQ ID NO: 26] | 12.7
15 | Y[Aib]QGTFTSDCSKYLDERAAKDFVQWLLDHHPSSGQPPPS (bridge 16-20; not fully specified (bridges); ends not checked) [trigonal agonist of SEQ ID NO: 27] | 1
16 | Y[Aib]QGTFTSDYSKYLDEKRAKDFVQWLLDHHPSSGQPPPSC (bridge 16-20; not fully specified (bridges)) [trigonal agonist of SEQ ID NO: 31] | 47.6

target: T1, human GIP receptor; experiment: cell-based or functional assay

Row | Binder | In Vitro Activity Compared to Native Peptide (%) vs. GIP (relative titer from cAMP EC50) [%]
17 | [Acetyl(2-(4-imidazolyl))][Aib]QGTFTSDYSKCLDEKRAKEFVQWLLDHHPSSGQPPPS (bridge 16-20; not fully specified (bridges)) [trigonal agonist of SEQ ID NO: 29] | 1
18 | H[Aib]QGTFTSDYSKYLDEKRQKEFVQWLLDTKC (bridge 16-20; not fully specified (bridges)) [trigonal agonist of SEQ ID NO: 33] | 0.12
19 | Y[Aib]QGTFTSDYSKYLDEKAAKDFVQWLLDHHPSSGQPPPSC (bridge 16-20; not fully specified (bridges)) [trigonal agonist of SEQ ID NO: 32] | 35.5
20 | [Acetyl(2-(4-imidazolyl))][Aib]QGTFTSDYSKYLDECRAKEFVQWLLDHHPSSGQPPPS (bridge 16-20; not fully specified (bridges)) [trigonal agonist of SEQ ID NO: 28] | 3
21 | Y[Aib]QGTFTSDYSKYLDEKAAKEFVQWLLDHHPSSGQPPPSC (bridge 16-20; not fully specified (bridges)) [trigonal agonist of SEQ ID NO: 30] | 18
22 | Y[Aib]QGTFTSDYSKYLDERACKDFVQWLLDHHPSSGQPPPS (bridge 16-20; not fully specified (bridges); ends not checked) [trigonal agonist of SEQ ID NO: 26] | 94.7
23 | Y[Aib]QGTFTSDCSKYLDERAAKDFVQWLLDHHPSSGQPPPS (bridge 16-20; not fully specified (bridges); ends not checked) [trigonal agonist of SEQ ID NO: 27] | 1.6
24 | Y[Aib]QGTFTSDYSKYLDEKRAKDFVQWLLDHHPSSGQPPPSC (bridge 16-20; not fully specified (bridges)) [trigonal agonist of SEQ ID NO: 31] | 11.7
